Test results reported in US20190359693A1.

Experiments:
[1] = molecular target: recombinant HA of H3N2 A/HK/1/68-MA (influenza A virus); test: biolayer interferometry (Octet), steady-state fit, geometric mean, pH 7.4
[2] = molecular target: recombinant HA of H7N9 A/Hangzhou/1/2013 (influenza A virus); test: as above
[3] = molecular target: recombinant HA of H7N3 A/NIBRG/60 (A/mallard/NL/12/00) (influenza A virus); test: as above
[4] = molecular target: recombinant HA of B/Brisbane/60/08 (Victoria) (influenza B virus); test: as above
[5] = molecular target: recombinant HA of H1N1 A/Brisbane/59/07 (influenza A virus); test: as above
[6] = molecular target: recombinant HA of H3N2 A/Wisconsin/67/05 (influenza A virus); test: as above
[7] = molecular target: hemagglutinin (HA) of influenza virus H10N9 A/Northern Shoveler/MPE2531/08 (influenza A virus); test: cell-based or functional assay
[8] = molecular target: hemagglutinin (HA) of influenza B/Florida/04/06 (Yamagata) (influenza B virus); test: cell-based or functional assay
[9] = molecular target: hemagglutinin (HA) of influenza virus H1N1 A/HK/54/98 (influenza A virus); test: cell-based or functional assay
[10] = molecular target: hemagglutinin (HA) of influenza virus H1N1 A/Mississippi/03/01 274H (influenza A virus); test: cell-based or functional assay
[11] = molecular target: hemagglutinin (HA) of influenza virus H3N2 A/Aichi/2/68 (influenza A virus) (UniProt P03437); test: cell-based or functional assay
[12] = molecular target: hemagglutinin (HA) of influenza virus H1N1 A/Christchurch/16/10 (influenza A virus); test: cell-based or functional assay
[13] = molecular target: hemagglutinin (HA) of influenza virus H1N1 A/Brisbane/59/07 (influenza A virus); test: cell-based or functional assay
[14] = molecular target: hemagglutinin (HA) of influenza virus B/Brisbane/60/08 (Victoria) (influenza B virus); test: cell-based or functional assay
[15] = molecular target: hemagglutinin (HA) of influenza virus H5N2 A/Eurasian Wigeon/MPF461/07 (influenza A virus); test: cell-based or functional assay
[16] = molecular target: hemagglutinin (HA) of influenza virus H1N1 A/California/07/09 (influenza A virus); test: cell-based or functional assay
[17] = molecular target: hemagglutinin (HA) of influenza virus H3N2 A/Victoria/210/09 (influenza A virus); test: cell-based or functional assay
[18] = molecular target: hemagglutinin (HA) of influenza virus H10N3 A/Common Teal/MPH11/08 (influenza A virus); test: cell-based or functional assay
[19] = molecular target: hemagglutinin (HA) of influenza virus H9N2 A/HK/466419/09 (influenza A virus); test: cell-based or functional assay
[20] = molecular target: hemagglutinin (HA) of influenza virus H2N2 A/Env/HK/MPU3156/05 (influenza A virus); test: cell-based or functional assay
[21] = molecular target: hemagglutinin (HA) of influenza B/Brisbane/60/08 (Victoria) (influenza B virus); test: cell-based or functional assay
[22] = molecular target: hemagglutinin (HA) of influenza virus H3N2 A/HK/1/68-MA (influenza A virus); test: cell-based or functional assay
[23] = molecular target: hemagglutinin (HA) of influenza virus H1N1 A/New Caledonia/20/99 (influenza A virus); test: cell-based or functional assay
[24] = molecular target: hemagglutinin (HA) of influenza virus H12N5 A/Env/MPK659/09 (influenza A virus); test: cell-based or functional assay

B1: MD2407 (bispecific antibody)
chain: EVQLVESGGGLVQPGGSLRLSCAVSISIFDIYAMDWYRQAPGKQRDLVATSFRDGSTNYADSVKGRFTISRDNAKNTLYLQMNSLKPEDTAVYLCHVSLYRDPLGVAGGMGVYWGKGALVTVSSGGGGSGGGGSEVQLVESGGGLVQAGGSLKLSCAASGRTYAMGWFRQAPGKEREFVAHINALGTRTYYSDSVKGRFTISRDNAKNTEYLEMNNLKPEDTAVYYCTAQGQWRAAPVAVAAEYEFWGQGTQVTVSSGGGGSGGGGSEVQLVESGGGLVQPGGSLRLSCAATGFTLENKAIGWFRQTPGSEREGVLCISKSGSWTYYTDSMRGRFTISRDNAENTVYLQMDSLKPEDTAVYYCATTTAGGGLCWDGTTFSRLASSWGQGTQVTVSSGGGGSGGGGSEVQLVESGGGLVQPGGSLKLSCAASGFTFSTSWMYWLRQAPGKGLEWVSVINTDGGTYYADSVKDRFTISRDNAKDTLYLQMSSLKSEDTAVYYCAKDWGGPEPTRGQGTQVTVSS
Kd [1]: 2.2 nM | Kd [2]: 1.7 nM | Kd [3]: 1.2 nM | Kd [4]: 3.1 nM | Kd [5]: 2.8 nM | Kd [6]: 0.5 nM | average neutralization titer [7]: 35 nM | ADCC induction (EC50 grade, FcγRIIIa reporter bioassay) [8]: > 0.5 µg/mL | average neutralization titer [9]: 10.3 nM | average neutralization titer [10]: 4.8 nM | average neutralization titer [11]: 9.9 nM | average neutralization titer [12]: 1.3 nM | average neutralization titer [13]: 3.7 nM | average neutralization titer [14]: 4.1 nM | average neutralization titer [15]: 16.6 nM | average neutralization titer [16]: 3.4 nM | average neutralization titer [17]: 6.5 nM | average neutralization titer [18]: 19.3 nM | average neutralization titer [19]: 53.9 nM | average neutralization titer [20]: 19.2 nM | ADCC induction (EC50 grade, FcγRIIIa reporter bioassay) [21]: > 0.5 µg/mL | average neutralization titer [22]: 25.9 nM | average neutralization titer [23]: 5.7 nM | average neutralization titer [24]: > 1000 nM
